# Test results: patent US20240116985A1 (published 2024)
# Starred links: 1 amine or outer side, 2 acyl side, 3 side chain; linkers in the order of their positions; H or OH if unused. Positions of bridges follow the written chain, without caps; N, C: chain ends. Non-standard residues stand in square brackets, D forms with d. Primed or numbered codes have the meaning given here. B5(26) = 2-amino-2-(pent-4-en-1-yl)hept-6-enoic acid (bis-pentenylglycine), stitching residue carrying two staples, C=CCCCC(CCCC=C)(N[*:1])C(=O)[*:2]; PyrS2″ = (S)-3-amino-1-((pent-4-en-1-yloxy)carbonyl)pyrrolidine-3-carboxylic acid (stapling residue), C=CCCCOC(=O)N1CC[C@@](N[*:1])(C(=O)[*:2])C1; PyrS3″ = (S)-3-amino-1-((hex-5-en-1-yloxy)carbonyl)pyrrolidine-3-carboxylic acid (stapling residue), C=CCCCCOC(=O)N1CC[C@@](N[*:1])(C(=O)[*:2])C1; B5(24) = 2-amino-2-(pent-4-en-1-yl)hept-6-enoic acid, 2,2-bis(4-pentenyl)glycine (stitching residue), C=CCCCC(CCCC=C)(N[*:1])C(=O)[*:2]; B5(21) = 2-amino-2-(pent-4-en-1-yl)hept-6-enoic acid, bis(4-pentenyl)glycine (stitching residue), C=CCCCC(CCCC=C)(N[*:1])C(=O)[*:2]; B5(6) = 2-amino-2-(pent-4-en-1-yl)hept-6-enoic acid (bis(4-pentenyl)glycine), stitching residue, C=CCCCC(CCCC=C)(N[*:1])C(=O)[*:2]; S(OMe) = O-methyl-L-serine, COC[C@H](N[*:1])C(=O)[*:2]; Phe(2-NO2) = N[C@@H](Cc1ccccc1[N+](=O)[O-])C(=O)O; Phe(2-Br) = N[C@@H](Cc1ccccc1Br)C(=O)O; Phe(2-Cl) = N[C@@H](Cc1ccccc1Cl)C(=O)O; Phe(2-OMe) = COc1ccccc1C[C@H](N)C(=O)O; Phe(3-F) = N[C@@H](Cc1cccc(F)c1)C(=O)O; Phe(4-F) = N[C@@H](Cc1ccc(F)cc1)C(=O)O; His(τ-Me) = Cn1cnc(C[C@H](N)C(=O)O)c1; Phe(2-F) = N[C@@H](Cc1ccccc1F)C(=O)O; Bta = N[C@@H](Cc1csc2ccccc12)C(=O)O; His(π-Me) = Cn1cncc1C[C@H](N)C(=O)O; αAllylPro = C=CC[C@@]1(C(=O)O)CCCN1; 2Thi = N[C@@H](Cc1cccs1)C(=O)O; S8 = C=CCCCCCC[C@](C)(N)C(=O)O
# T1: full-length beta-Catenin (Uniprot ID P35222) (Homo sapiens (Human), UniProt P35222 1-781)
# T1 construct: The assay protocol says full-length beta-Catenin (Uniprot ID P35222); tags are not described; also called bCat; B-Catenin
# T1 sequence: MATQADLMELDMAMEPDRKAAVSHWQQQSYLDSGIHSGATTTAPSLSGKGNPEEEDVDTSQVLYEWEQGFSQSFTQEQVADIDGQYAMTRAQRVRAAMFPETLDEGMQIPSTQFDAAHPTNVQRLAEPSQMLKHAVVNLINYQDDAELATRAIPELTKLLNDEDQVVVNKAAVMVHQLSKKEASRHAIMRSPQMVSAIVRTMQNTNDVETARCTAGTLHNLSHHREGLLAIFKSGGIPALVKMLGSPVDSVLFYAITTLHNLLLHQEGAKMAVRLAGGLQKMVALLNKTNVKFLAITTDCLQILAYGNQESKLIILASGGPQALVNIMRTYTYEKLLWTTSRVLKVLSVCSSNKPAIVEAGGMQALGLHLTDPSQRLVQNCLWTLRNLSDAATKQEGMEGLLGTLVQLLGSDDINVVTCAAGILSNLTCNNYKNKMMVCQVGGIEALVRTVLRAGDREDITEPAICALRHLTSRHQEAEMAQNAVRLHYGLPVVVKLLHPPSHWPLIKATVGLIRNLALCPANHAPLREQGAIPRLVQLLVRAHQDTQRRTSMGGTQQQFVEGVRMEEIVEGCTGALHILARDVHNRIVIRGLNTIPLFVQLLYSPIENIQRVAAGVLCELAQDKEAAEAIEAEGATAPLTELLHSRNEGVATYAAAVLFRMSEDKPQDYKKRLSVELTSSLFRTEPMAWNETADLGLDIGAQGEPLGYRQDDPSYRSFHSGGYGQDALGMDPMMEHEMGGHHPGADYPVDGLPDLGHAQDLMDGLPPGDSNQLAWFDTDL
# B1: I-437 (peptide)
# peptide: Ac-[αAllylPro]DA[B5(24)]DEAAFN[S8][Phe(2-OMe)][Bta]Q-NH2
# modifications: staple 1-4, 4-11
# notes: Stapled (stitched) peptide with non-natural residues
# B2: I-454 (peptide)
# peptide: Ac-[αAllylPro]DA[B5(21)]DEAA[Phe(3-F)]N[S8]F[Bta]Q-NH2
# modifications: staple 1-4, 4-11
# notes: as for B1
# B3: I-436 (peptide)
# peptide: Ac-[αAllylPro]DA[B5(24)]DEAAFN[S8][Phe(2-Br)][Bta]Q-NH2
# modifications: staple 1-4, 4-11
# notes: as for B1
# B4: I-434 (peptide)
# peptide: Ac-[αAllylPro]DA[B5(24)]DEAAFN[S8][Phe(2-F)][Bta]Q-NH2
# modifications: staple 1-4, 4-11
# notes: as for B1
# B5: I-438 (peptide)
# peptide: Ac-[αAllylPro]DA[B5(26)]DEAAFN[S8][His(π-Me)][Bta]Q-NH2
# modifications: staple 1-4, 4-11
# notes: as for B1
# B6: I-433 (peptide)
# peptide: Ac-[αAllylPro]DA[B5(24)]DEAAF[S(OMe)][S8]F[Bta]Q-NH2
# modifications: staple 1-4, 4-11
# notes: as for B1
# B7: I-439 (peptide)
# peptide: Ac-[αAllylPro]DA[B5(21)]DEAAFN[S8][His(τ-Me)][Bta]Q-NH2
# modifications: staple 1-4, 4-11
# notes: Staple isomer composition: earlier-eluting HPLC peak
# B8: I-440 (peptide)
# peptide: XDAXDEAAFNXHXQ
# modifications: not fully specified; Ac-PL3-Asp-Ala-B5-Asp-Glu-Ala-Ala-Phe-Asn-S8-1meH-BztA-Gln-NH2; N-terminal acetyl, C-terminal amide; stapled PL3(1)-B5(4) and B5(4)-S8(11) by olefin metathesis
# notes: Staple isomer composition: later-eluting HPLC peak
# B9: I-469 (peptide)
# peptide: Ac-[αAllylPro]DI[B5(6)]DDAAFN[S8]F[Bta]H-NH2
# modifications: staple 1-4, 4-11; also: staple isomer composition: earlier-eluting HPLC peak
# notes: as for B7
# B10: I-467 (peptide)
# peptide: Ac-[αAllylPro]DI[B5(6)]DDAAFN[S8]F[Bta]Q-NH2
# modifications: staple 1-4, 4-11; also: staple isomer composition: earlier-eluting HPLC peak
# notes: as for B7
# B11: I-464 (peptide)
# peptide: Ac-[αAllylPro]DA[B5(21)]DEAAFN[PyrS3″]F[Bta]Q-NH2
# modifications: staple 1-4, 4-11; not fully specified; printed as Ac-PL3-Asp-Ala-B5-Asp-Glu-Ala-Ala-Phe-Asn-PyrS3-Phe-BztA-Gln-NH2
# notes: as for B8
# B12: I-453 (peptide)
# peptide: Ac-[αAllylPro]DA[B5(21)]DEAA[Phe(2-F)]N[S8]F[Bta]Q-NH2
# modifications: staple 1-4, 4-11
# notes: as for B1
# B13: I-455 (peptide)
# peptide: Ac-[αAllylPro]DA[B5(21)]DEAA[Phe(4-F)]N[S8]F[Bta]Q-NH2
# modifications: staple 1-4, 4-11
# notes: as for B1
# B14: I-463 (peptide)
# peptide: Ac-[αAllylPro]DA[B5(21)]DEAAFN[PyrS3″]F[Bta]Q-NH2
# modifications: staple 1-4, 4-11; also: earlier-eluting HPLC staple isomer
# notes: as for B7
# B15: I-441 (peptide)
# peptide: Ac-[αAllylPro]DA[B5(21)]DEAAFN[S8][Phe(2-NO2)][Bta]Q-NH2
# modifications: staple 1-4, 4-11
# notes: as for B1
# B16: I-435 (peptide)
# peptide: Ac-[αAllylPro]DA[B5(24)]DEAAFN[S8][Phe(2-Cl)][Bta]Q-NH2
# modifications: staple 1-4, 4-11
# notes: as for B1
# B17: I-462 (peptide)
# peptide: Ac-[αAllylPro]DA[B5(21)]DEAAFN[PyrS2″]F[Bta]Q-NH2
# modifications: staple 1-4, 4-11
# notes: as for B1
# B18: I-450 (peptide)
# peptide: Ac-[αAllylPro]DA[B5(21)]DEAA[2Thi]Q[S8][Phe(3-F)]WQ-NH2
# modifications: staple 1-4, 4-11
# notes: as for B1
# Target: T1, full-length beta-Catenin (Uniprot ID …)
# Test: fluorescence polarization competition: full-length beta-catenin + 5FAM-TCF4(10-53) probe, peptide titrated
# Procedure: The plate was incubated protected from light for 60 minutes at 20° C. prior to read. Reads were performed on a CLARIOstar plate reader (BMG Labtech) in duplicate, and data were fitted to a 1:1 binding model with hill slope using an in-house script. All provided concentrations are final concentrations.
row,EC50 [nM],Binder
1,26,B1
2,125,B2
3,56,B3
4,67.5,B4
5,5000,B5
6,136,B6
7,5000,B7
8,5000,B8
9,27,B9
10,44,B10
11,57,B11
12,1550,B12
13,83.5,B13
14,92,B14
15,133,B15
16,70,B16
17,28,B17
18,3720,B18
